Data as given in patent publication US7101843B2, “Glucagon-like peptide-1 analogs” (Eli Lilly and Company, priority 2001, dated 2006).
Where “and” joins values, the source holds several entries; their conditions need not be identical. Identical values can stand only once.

What was measured:
GLP-1 receptor = GLP-1 receptor (Homo sapiens, UniProt P43220); experiment: GLP-1 receptor activation in vitro; assay type: cell-based; conditions: Val^8-GLP-1(7-37)OH = 1.0, several values in a cell are repeat determinations
Chain of GLP-1 receptor (P43220 24-463, species assumed): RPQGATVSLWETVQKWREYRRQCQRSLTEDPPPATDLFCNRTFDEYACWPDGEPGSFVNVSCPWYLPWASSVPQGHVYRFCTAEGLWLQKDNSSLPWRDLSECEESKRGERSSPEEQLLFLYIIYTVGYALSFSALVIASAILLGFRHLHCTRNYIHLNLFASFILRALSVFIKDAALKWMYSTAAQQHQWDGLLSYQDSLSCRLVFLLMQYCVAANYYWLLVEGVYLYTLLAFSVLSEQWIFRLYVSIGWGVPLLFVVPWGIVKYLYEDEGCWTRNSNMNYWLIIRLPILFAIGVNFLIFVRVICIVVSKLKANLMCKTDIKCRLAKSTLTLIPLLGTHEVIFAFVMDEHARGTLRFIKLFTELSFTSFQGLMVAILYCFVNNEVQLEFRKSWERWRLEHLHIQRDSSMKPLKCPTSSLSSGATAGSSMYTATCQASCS
Description: “Insulinotropic activity” refers to the ability to stimulate insulin secretion in response to elevated glucose levels, thereby causing glucose uptake by cells and decreased plasma glucose levels. […] The entire teachings of these references are incorporated herein by reference.
The entire teachings of these references are incorporated herein by reference.

[1] = test system: plasma insulin and plasma glucose; experiment: Intravenous glucose tolerance test (IVGTT) in rats; assay type: in vivo, wistar male rats; conditions: plasma insulin after injection (figures)
Method: FIG. 1 graphs plasma insulin and plasma glucose concentrations obtained at various time points after injection of increasing concentrations of Val^8-GLP-1(7–37)OH in rats.
FIG. 2 graphs plasma insulin concentrations obtained at various time points after injection of increasing concentrations of Val^8-Glu^22-Val^25-Ile^33-GLP-1 (7–37)OH in rats.
A double cannulation procedure was performed on fasting wistar male rats to facilitate injection of solutions and withdrawal of blood. Rats were injected through the jugular cannula with a bolus of 10% glucose solution followed by a solution containing a specific amount of a GLP-1 compound. Rats were injected with 0.01, 0.03, 0.1, 0.3, 1, and 10 μg/kg of GLP-1 compound. Blood was collected through the carotid cannula 2, 4, 6, 10, and 30 minutes following the injection of GLP-1 compound and analyzed. Plasma insulin and plasma glucose levels were measured in each sample. Average insulin and glucose levels are illustrated in FIGS. 1, 2, and 3.

[2] = GLP aggregation assay (turbidity at 350 nm, time to onset of aggregation); assay type: physicochemical; conditions: for aggregation time: at 30° C., stirred solution, pH 7.4
Method: GLP peptides of this invention were analyzed with respect to their potential to aggregate in solution. In general, peptides in solution were stirred at elevated temperature in a suitable buffer while recording turbidity at 350 nm as a function of time. Time to the onset of aggregation was measured to quantify the potential of a given GLP molecule to aggregate under these stressed conditions.
A GLP-1 compound was first dissolved under alkaline conditions (pH 10.5) for 30 minutes to dissolve any pre-aggregated material. The solution was then adjusted to pH 7.4 and filtered. Specifically, 4 mg of a lyophilized GLP-1 compound was dissolved in 3 ml of 10 mM phosphate/10 mM citrate. The pH was adjusted to 10.0–10.5 and held for 30 minutes. The solution was adjusted with HCl to pH 7.4 and filtered through a suitable filter, for example a Millex GV syringe filter (Millipore Corporation, Bedford, Mass.). […] Every five minutes the turbidity of the solution was measured at 350 nm on an AVIV Model 14DS UV-VIS spectrophotometer (Lakewood, N.J.). For 30 seconds prior to and during the measurement the solution was stirred using a magnetic stir bar from Starna Cells, Inc. (Atascadero, Calif.). An increase in OD at 350 nm indicates aggregation of the GLP-peptide. The time to aggregation was approximated by the intersection of linear fits to the pre-growth and growth phase according to method of Drake (Arvinte T, Cudd A, and Drake A F. (1993) J. Bio. Chem. 268, 6415–6422).

Substance	GLP-1 receptor activation relative to Val^8-GLP-1(7-37)OH (GLP-1 receptor)	in vivo potency compared to Val^8-GLP-1(7–37)OH [1]	aggregation time [2]	propensity to aggregate in solution compared to Val^8-GLP-1(7–37)OH [2]
Val^8-Glu^22-Ile^33-GLP-1(7-37)OH (HVEGTFTSDVSSYLEEQAAKEFIAWLIKGRG) [GLP-1 analog]	4.7 and 3.8 and 3.4	–	–	–
Val^8-Glu^22-Val^25-Ile^33-GLP-1(7-37)OH (HVEGTFTSDVSSYLEEQAVKEFIAWLIKGRG) [GLP-1 analog]	4.9 and 5.8 and 6.7	higher in vivo potency	–	–
Val^8-His^37-GLP-1(7-37)OH (HVEGTFTSDVSSYLEGQAAKEFIAWLVKGRH) [GLP-1 analog]	–	–	greater than 40 hours	markedly decreased propensity to aggregate
Val^8-Glu^30-GLP-1(7-37)OH (HVEGTFTSDVSSYLEGQAAKEFIEWLVKGRG) [GLP-1 analog]	–	–	approximately 30 hours	markedly decreased propensity to aggregate
Val^8-Glu^22-GLP-1(7–37)OH	–	–	approximately 72 hours	markedly decreased propensity to aggregate

More lines, main results first:

GLP-1 receptor activation relative to Val^8-GLP-1(7-37)OH (GLP-1 receptor)	Substance	in vivo potency compared to Val^8-GLP-1(7–37)OH [1]	aggregation time [2]	propensity to aggregate in solution compared to Val^8-GLP-1(7–37)OH [2]
4.7 and 2.9	Val^8-Glu^22-Val^25-GLP-1(7-37)OH (HVEGTFTSDVSSYLEEQAVKEFIAWLVKGRG) [GLP-1 analog]	–	–	–
5.1 and 5.9	Val^8-Tyr^18-Glu^22-GLP-1(7-37)OH (HVEGTFTSDVSYYLEEQAAKEFIAWLVKGRG) [GLP-1 analog]	–	–	–
3.6 and 3.8 and 4.9 and 4.6	Val^8-Tyr^16-Glu^22-GLP-1(7-37)OH (HVEGTFTSDYSSYLEEQAAKEFIAWLVKGRG) [GLP-1 analog]	–	–	–
